{
  "source": "patent US20260022144A1",
  "about": "“ANALGESIC POLYPEPTIDE” (Shanghai Puyou Biomedical Co., Ltd., priority 2022, published 2026)",
  "molecules": {"B1": {"name": "SEQ ID NO: 29: exemplary polypeptide of the present disclosure; artificial polypeptide of formula (I) X-Y (protein)", "chain": "SEKKQPVDLGLLEEDDEFEEFPAEDWAGLDEDEDAHVWEDNWDDDNVEDDFSNQLRATVLLMILVAETPYGAYVLHQKGRMASAFLAA"}},
  "key": {"SNL pain model in rats": {"tested_on": "SNL pain model in rats", "assay": "SNL (spinal nerve ligation) pain model in rats, mechanical allodynia test", "assay_type": "in vivo, rat", "details": "SD rats, 1 h after administration", "protocol": "A summary of the method for inducing pain model in rats by means of spinal nerve ligation is provided hereinafter. Briefly, male SD rats were anesthetized with Zoletil R 50+xylazine hydrochloride (20 mg/kg+8 mg/kg, intraperitoneal injection). The surgical areas on the waist regions of the animals were shaved, and the skin was disinfected with iodophor and 70% v/v ethanol for three times. The left spinal nerves L5 and L6 of the animals were isolated, tightly ligated with 6-0 silk suture, and the wounds were sutured.\nOn the 11th day post operation, the animals were acclimated to the experimental environment, 15 minutes/day, for 3 consecutive days.\nBriefly, after SNL modeling, 24 animals were randomly divided into 3 groups (Groups 2, 3 and 4, N=8/group). Group 1 (a Sham group, for which the 10 animals received essentially the same operation procedure as other groups but their left spinal nerves L5 and L6 were neither isolated nor ligated) was used as the control group. The test articles were administrated to the animals according to the protocol shown in Table 5, and mechanical allodynia tests were respectively performed 1h after administration according to the method as recited in Example 1.\nBriefly, after SNL modeling, 30 animals were randomly divided into 3 groups (Group 1, N=6/group; Groups 2 and 3, N=12/group). Various polypeptides of the present disclosure were administered to the animals from Groups 2 and 3, and the animals were subjected to mechanical allodynia tests 1 h after administration according to the method as recited in Example 1."}, "[1]": {"tested_on": "VZV-induced pain model in rats", "assay": "VZV-induced pain model in rats, mechanical allodynia (von Frey) test", "assay_type": "in vivo, rat", "details": "for 50% PWT (paw withdrawal threshold), analgetic effect: vs placebo", "protocol": "A summary of the method for inducing pain model in rats by means of subcutaneous VZV inoculation is provided hereinafter. Briefly, male Sprague Dawley (SD) rats were deeply anesthetized by intraperitoneal injection of a Zoletil R: 50 (30 mg/kg)/xylazine (6 mg/kg) anesthetic at an injection volume of 6 mL/kg, and then the virus inoculation was performed by subcutaneous injection at the footpad area. The infection dose was 22800 TCID50 per animal, and the infection volume was 150 μL for all rats.\nAdministration was performed on alternate days. Briefly, the test articles were administered by subcutaneous injection at the footpad area on Day 1 and Day 3, respectively. As for Group 2, the administration of SEQ ID NO: 29 was initiated from the first concentration. Namely, the first concentration (10 μg/mL) was administered on Day 1, and the second concentration (20 μg/mL) was administered on Day 3. Pain was measured once after each administration.\nMechanical allodynia tests (also called “von Frey tests”) for pain measurements were performed on the rats one hour after administration of the test articles on Day 1 and Day 3, respectively. In the behavioral test for rats, mechanical allodynia is expressed as the 50% paw withdrawal threshold (PWT), which is calculated according to the following formula:\n[formula] • wherein • Xf=final test fiber value used in the test • k=tabular value for the pattern of positive/negative responses (Chaplan et al. 1994, page 62) • δ=mean difference.\nBriefly, the rats were placed individually in plexiglass boxes with a grid at the bottom to ensure that the rats' feet could be tested. The rats were acclimated to the environment for 15 minutes prior to the test. After the acclimation was completed, pain (mechanical allodynia) was tested on the center of the sole of the left hind foot of the rats using test fibers. The test fibers included 8 test strengths: 3.61 (0.4 g), 3.84 (0.6 g), 4.08 (lg), 4.31 (2 g), 4.56 (4 g), 4.74 (6 g), 4.93 (8 g) and 5.18 (15 g). During the test, the test fibers were pressed vertically against the skin and forces were applied to bend the fibers for 6-8 seconds with a 5-second interval between each test. During the test, a pain response was recorded if the animals quickly withdrew their feet. The pain response was also recorded if the animal withdrew their feet as the test fibers left the animal's skin. The pain response was not recorded if the animal moved or ambulated, and the test should be repeated. The test was started with 4.31 (2 g). If the animal had pain response, the next test should be performed with a test fiber with a lower strength: if the animal has no pain response, the next test should be performed with a test fiber with a higher strength. The maximum strength of the tested fibers was 5.18 (15 g). The test results were recorded in a table, wherein the presence of pain response was recorded as “x”, and the absence of pain response was recorded as “0”.\nThe rats were randomly divided into 2 groups, with 8 rats in the placebo group (Group 1, administered with vehicle (normal saline)) and 8 rats in the treatment group (Group 2, administered with 30 mg SEQ ID NO: 29/kg). Briefly, the test articles were administered to the rats on a single day by intravenous injection.\nMechanical allodynia tests were performed on the rats 0.5 h after administration of the test articles according to the method as recited in Example 1, respectively.\nThe rats were randomly divided into 3 groups, with 8 rats in the placebo group (Group 1, administered with vehicle (normal saline)) and 16 rats in the treatment groups (Groups 2 and 3, 8 rats/group, administered with various polypeptides). Briefly, vehicle (normal saline) was administered to the rats from Group 1 and various polypeptides were administered to the rats from Group 2 (SEQ ID: 29, SEQ ID: 57 and SEQ ID: 49; 10 mg polypeptide/kg) and 3 (SEQ ID: 75 and SEQ ID: 28: 10 mg polypeptide/kg) on a single day by intravenous injection."}},
  "data": [
    {"molecule": "B1", "values": [
      {"measurement": "analgetic effect (50% PWT)", "setting": "SNL pain model in rats; i.v. single administration (SEQ ID NO: 29 30 and 60 mg/kg; SEQ ID NO: 90 and 93 60 mg/kg)", "result": "certain analgetic effect"},
      {"measurement": "analgetic effect of 60 mg/kg compared with 30 mg/kg (50% PWT)", "setting": "SNL pain model in rats; i.v. single administration", "result": "much higher than that produced from the dose of 30 mg SEQ ID NO: 29/kg"},
      {"measurement": "analgetic effect (50% PWT)", "setting": "[1]; 10 mg polypeptide/kg i.v., single administration, tested 0.5 h after administration", "result": "apparent analgetic effect"},
      {"measurement": "50% PWT (paw withdrawal threshold), analgetic effect", "setting": "[1]; 30 mg/kg i.v., single administration, tested 0.5 h after administration", "result": "significantly increased the 50% PWT values of the rats"},
      {"measurement": "50% PWT (paw withdrawal threshold), analgetic effect", "setting": "[1]; s.c. (footpad) 10 then 20 μg/mL, 50 μL, tested 1 h after administration", "result": "increased the 50% PWT values of the rats in a dose-dependent manner"}
    ]}
  ]
}
